Source: the DeepSol protein solubility set

Assay: soluble on expression in E. coli; label from the status in PepcDB or PDB records

| Sequence | soluble on expression in E. coli |
| --- | --- |
| MSFDLSWYGVPVEEEAKEEEAIVYGIPNNPELEQIIPAKFHSFVNEVIGDYNTLSDEEFWKKYNLREIWFDVKEYEEDNKAKNMLGTIIVFLLVEKEYILQLDYKEDLVDYIEDIDNYWGKEEVKLISFEVDNDQQYYAYVPKTAAIDSLYEVKLTEVEKIEEV | not soluble |
| MSRSTFSILPYINRQKVKADGTANILCRITVDGKSAAISTGISCTPQEWNAKKGEVRNARDNGRLASFLDEIKDKYNALLVANGIITVEMLKAVLKDKDTTGRFLLSFGDTIVEWYRTAKARQTFLHKRTWQKNLRDFVHSLDKDDIAFEDIDENFGEEYKLFLKRDQGRIDSYVNHCLLWLNMLMYKAVDRSIIRFNPIAKIGYEKKAAPKMTHISKADFIKMLSTPMADERTELARRCFIFASLTSLSYIDVKKLYPRHISENSEGRKFIRKEREKTGVEFFVPLHPIAEKILSLYNTTDDSKPVFPLGEKKDIYLDVHTLGMVLGISNKLGFHASRHTFGVLMLNEDIPIGSIAKMMGHADITSTQVYAQVTEQKISNDMDKLIAKREMNRLSNEKTIGK | not soluble |
| MKLACKIYNTLRWADIYFYQRDGKGLTQTELRQLALDLRKQDDEYKQLYSQVVQQIADRYYEARQRFFEGLARFPKEKKPHKYYSLVYPQYGWKILQVREIRKGSKKNKKRLITLKLSNLGTFKVIIHRDFPLDKVKRVVVKLTRSERIYITFVVEDYEFPKLPNTGKVVAIDVGIEKLIVTSDGEYFPNLRPYEKALWKVKHLHRELSRKKFLSNNWFKAKVKLARAYEHLKNLRTDLYMKLGKWFAEHYDVVVMEDIHVKQLIGKSLRSLRRRLSDVAFSELRDLIKYQLEKYGKKLILVNPAYTSKTCARCGYVKEDLSLSDRVFVCSNCGWIADRDYNASLNILRGSGSERPLVWSSALYQYQHFGTGMAELLEHHHHHH | soluble |
| VILKEEFRGVIIKQGCLLKQGHRRKNWKVRKFILREDPAYLHYYDPAGAEDPLGAIHLRGCVVTSVESNSNGRKSEEENLFEIITADEVHYFLQAATPKERTEWIKAIQMASRTGK | soluble |
| DVAVRTLSDVPSAAPQNLSLEVRNSKSIMIHWQPPAPATQNGQITGYKIRYRKASRKSDVTETLVSGTQLSQLIEGLDRGTEYNFRVAALTINGTGPATDWLSAETFESDLDETRVPEV | soluble |
| MPTTQLHHHYVLCGWHVRSALTLPELPPWSATATPVDADVVIEEGEVPDRLDLHDPVESWLSVGRDGSVLLQVPQVVRIHVHAGRAMRVQRLNRHDESWRLFLLGSALGYLCLQRSLFPLHAACLRIGTQTVAFAGHSGAGKSTLAAALLKRGHGLLSDDLTVIRLDSAGAIMVLPAFPRLKLWRDTLESLQLPVTDAPPVRPGMEKFDLRPSAGFDAAPVRLDAVVVLGDASEPHLQRLSPQHALPLLHGYLARPQAAVRMGLHAATFAHAAAIARQVPVWRLRRPRRFDALDITVDLIEAHVGALEHHHHHH | not soluble |
| MNRSRDKVRCALNHQNAGSIPVDFGSTAVTGIHCRIVEALRNYYGLAPRPVKIVDAFQMLGEIDAELAEKIGVDCIGIGGPKDIFDLDTTRMHEQTTPWGQRVLVPEAMDLTPDMRGDVYVYAGGDQNYPPSAVMPKGCYFINAIERQQPIEEDRLDPEDNVEEFGLLTENDLAYYCAEADKAYQTGRAVVASFGGTALGDVAFVPGMGLKQPKGIRSVVEWYMSTAMRQDYLHQVFEKEIDIAIANYEKLWAALGDKIDVVLTCGTDFGSQESQFCSIDTFRELWLPHYRRMNDWIHQHTTWKIFKHSCGAIIPILPGLIEAGFDIINPVQINAKDMDSRRLKEEFGSQLTFWGGGVDTQKILPFGTPDEIRRHVMGQCEILGRDGGFVFNAVHNVQANVPVDNVVAMFDALKDISLEHHHHHH | not soluble |
| MSLKDQDIFELIEPSTDINDIIMPENTKELLENILKQQDKKVLERLHSWGIKSNKNIEAKIIFYGPAGTGKTMSALAMAKSMKKSVLSFDCSKILSKWVGESEQNVRKIFDTYKNIVQTCKQSPILLLNEADQFLSTRVDGSSGSDKMHNQMQNIFLEQIERFSGVIIATTNFLESLDSAFSRRFDYKIEFKKPDFKDRLKIWEKFLPKKALFEKDFDINILSNYELSGAQILMVVKNTALKVAVSKDGVFKIQDFIESIQKELNSSFDKSKIVGFEGHHHHHH | soluble |
| MSLNEDWPTIAFLVPMDRNHEYGRNYVSSLRKAAEEHHVNAFVMNSNYDASVQASQMKIAIAKKVDGIVIWPALYGAEQPMLIQAQRAGIPVDISNSQPPEDLDTSLYHAFTGPNDQRIGELQGKELAKLLGSKGTYVYIGGTPGNAAAINRQIGLEREMANHPDVKLLGSQPGNFDKNQAQTAASALISRFGNQIDALVTPDDIIASGAAQALDAAGMAGQVKLLGHNYAPVARSLLENGSMSTTLFQSPCWDSTHALTTMMDVLAGKDVPPVSYMPLPVVTKDNLDEFTPNGCLPEGYSEPATNEGHHHHHH | soluble |
| MGSDKIHHHHHHMAKILVVTDGAYGYRIKGTINSFGKKNKFIGIYKINKPDDLIVDDIEFPDELLEKIKEADILLLYTQHPDNTYYLCYEARRLNKDIAIIVATWSGEGEKKELKKFDAICPEEMCLLDENEVGSLIDKYPKLKEFLEEFGTPKVKVYVKDNKVIDVEVLRTSICGSTLFMAKLMKGMEVNDIEEFAKKSAMLIQRYPCVAGKIKIFRGDCRKQKALNIHKEAVLEGIIFI | not soluble |
| MGSDKIHHHHHHMRNTDNGVIGSDQTAVMTRLALDELIDQLLHSNALSLKLTANPLVADRAWHLTENTCIRAFSADDPQAKKRAHHALFILYQSWLADPLSPAAANQFHPLLSGIRNYIESEWLRAESKRFHHQRPMLNAGNIVDELRALCQQHPASHHPLFDFLASEASAAQIDYFFKSDSALNLLFFDLVAMGLVGSLPETRAEIAQNLWDEIGQGSTEITHVNLYKDLLKRRNIALPDNHFAHLYEWQGLAGYNAFMLGGVNRQHYYKSLGVMAMTELLDPPQYEKLVAGCRRIGLSERDVHYYAEHITVDIGHADGWLNNVIVPIGKKHPAAMEEVFFGAALRLQTCNDYYDGLLAALQSLGGSLSSHSVPPSE | not soluble |
| MSLTSTAFAPRSLAPARITAVRVAPLLGESPQGGWSHEIKADDSVHALIALHTDAGISGYGSVFTNGALVQAAADVLTPLLLGENALEPDRIAEKLHQNTFWMGRGGSITHTISGIDIAMWDILGQATGLSVGRLLGGRHRDRVQPYCSLLMDMPERMEAVIAPHRAAGFRAFKIGWGPFGRRGDAGLDRAIIDAARTAVGTDAQLLVDAGASDAYWPNGLKWAMNTAAMLADYDVGWFEEALPPDAIEDFIALRRMSPVPIAGGEVLTRRQSFAPWLVRGAFDIVQPDVTKVGGISEQRRIAWMARDFGIRYVGHGWNTAFGLAADLQLAAAMPDCTLVEYIGGSAYVDRLTTRPFALDAEGMLAIPDLPGLGVSPDPALLARYTPDPEKFFSAEGHHHHHH | soluble |
| GMAFMEKIFPDILEAIRNEEIIKESKKIPMPYFGLFALVIFDKVKELGSETSLYEIGEEFGKMLSPKNIEELKKIFKLMNFGDLEIDENKILLKNPPYKIKLSNPPYQWVSKEEPIHDFIAGILAGCLEEIFYYYFVVNEVECVSQGKDKCVFEVKEVDELNK | soluble |
| MSLGEKASKVLITSVPKCGTHLLKQVVLGAPFYKRGKWISLRESIREQIDNCHDQTIMVGHLEYSEEIVRYLNEKGIRRLFIYRDPRDMLISYVFYVKEIAPKHELRNYFLHVLGSDEERIMKLITGFHYQEENLTYGDLTLHYQPFLPWIEDKGTLALRFEDLVSSNECKEQTISKIADYLWHGSTFDQYNKAVLKKRMLENIRPSHSGTFRKGVSGDWKNYFTAQHKSVFKEVAGQLLIDLGYEKDMDEGHHHHHH | soluble |
| PALVLEGDMTAPTLVIGWGSTFGSLKSAVQQCLEQGLPVAYLHLRHLNPLPDDLGSLLKKYDKVLVAELNSGQLCQLIRAVYLVDAQSISQCNGQPFSVNPLVSAIKAEANYEQQL | not soluble |
| LEYLKNNCKVIIVDMHAEATSEKCALAWYLDGRVSCVLGTHTHVQTADERILPFGTAFISDVGMTGPYDGIIGVNREIVIQKFLTHMPVRFEVATGRVQFNAVYLEIDEKTGKTTGIERIYEILEV | not soluble |
| MGSDKIHHHHHHNTPREVTLHFLRTAGHPLTRWALQRQPPSPKQLEEEFLKIPSNFVSPEDLDIPGHASKDRYKTILPNPQSRVCLGRAQSQEDGDYINANYIRGYDGKEKVYIATQGPMPNTVSDFWEMVWQEEVSLIVMLTQLREGKEKCVHYWPTEEETYGPFQIRIQDMKECPEYTVRQLTIQYQEERRSVKHILFSAWPDHQTPESAGPLLRLVAEVEESPETAAHPGPIVVHCSAGIGRTGCFIATRIGCQQLKARGEVDILGIVCQLRLDRGGMIQTAEQYQFLHHTLALYAGQLPEEPSP | not soluble |
| MMEADKKFLELVKKWGVLSVVSSWQDRLLRDICALIVECVLFDKTCAVAPAYFTLIAMNSSKFSTQQWNIFSNFLATASTQSLRHVRLLNSFFVRSSTDENGDIGDVTSYNPGKLTFRQLIAAVQVLSSQKEKSLGQKEEEDLSSGVALIMLSHGADTHRLEVHSIISSLFTHCLLLQLIASLLLSEDSNPKLKATLIGSTSPIDPKLDDSIYPILYNILNESSETSLDFDSRPAVGSLLSRMLGIKHANLLKALVSSNLTKTMSLLRRFEKTKNTELLPEIAKAVKSRSVDLKSVEFEVSTRRSAFVTREHAITQYHLVPVDNGEENAYKLVSQEFVDGALSEYDKHRDRLKPFIPDRRNPFQHAIDDSDTVSIDSKTEDFDEIRLAAYRDICLIPLRYVSDNLLREHLPDFLPPVTQIVLSSPDLAVRQLAVDFMSRLA | not soluble |
| MSYTAEMIIRLREEKKEMRNRDFAISIGISEAELIAAYCTIGKAKRLKTDIAVLLENAPQLGTVMALTRNEHAVHEITGCFEKIVQNQHVLLTLGEIDLRIFAKQWKFCFEYEAIVLGKPTKSLHFFDQNGVAIFKLYSKDTTNMAEWNKLVDKLLHEDQSPVLDIPPKAIPNKRDIVELNVEEFRDRWRKMTDVHQLHGIISELKINRHDAVKYVGNEFAHELKREAIEIMLNQVAQQEVPIMCFVGNKGCIQIFSGQIKNIKQMGPWLNVLDKKFHLHLLIPGIKNVWCVRKPTSDGHVTSLEVFDENDEMIIQFFGMRKEGQKEREDWRSLLNSLPQSHAVAVA | not soluble |
| IQQANEEAVTRIIQSKPILVGFDKAINVMPDMTETTILHAGPPITYENMCGPMKGAVQGALVFEGLAKDLADADRVARSGAITFSPCHEHDAVGSMAGVTSPNMYVHIIKNETYGNTAFTNLSEQLAKVLRFGANDQSVVDRLIWMRDVLGPLLHDAMTFCPEGIDLRLMLSQALHMGDECHNRNVAGSTLLVQALTPYMVQTDFSREQLKEVFEFLGSSDYFSGPTWMGAAKCALDAGHNVENSTIVTTMCRNGVEFGIRVSGIGGNHWFTGPAQRVIGPMFAGYTQEDAGLDMGDSAITETYGVGGFAMAAAPAIVPLVGGTVAEALNYSKEMLEITTKENPNVTIPVLDFMGIPTGIDVLKVLETGMLPVINTAIAHKEPGIGMIGAGLTNPPANVFNEALKALVATIN | not soluble |
| MGSDKIHHHHHHVATGTGLVAIPAAEKVGSEGYVIGIDMTPGMLHQARIKIAAAKLQNIELIEADVEYFNFSESSFDVVFCCEAIVLVPDILAILKKWYRFLKPGGFVAFTCPPETAFMASLQQRICARVLGVSLPHILEPLGTPEKCRNLLNQAGFRDIEIKIEPSGRYRPLRDNRLSEIAININFKGNPLLSKLSQEQLNQLQVEYKAEIEKLATEQGIWEDTTKLFVRARK | not soluble |
